The values below come from patent publication US11332546B2, “Protease inhibitory antibodies and methods of use thereof” (The Regents of The University of California, priority 2019, dated 2022).

Data set [1] addresses T1, cdMMP-14 (Homo sapiens, UniProt P50281). Description: In vitro proteolytic stability of Fab with its target protease (cdMMP-14). Type of data set: physicochemical. Also on record: human MMP-14 (residue 114-320); hexahistidine (C); made in house; host or cells: E. coli (periplasm). The note with it: 1 μM Fab with 1 μM protease, 37° C., 24 hours, SDS-PAGE.
In data set [2] the test system is cdMMP-9. Description: FRET inhibition selectivity test, cdMMP-9 (Example 1). Type of data set: biochemical. The note with it: Fab at 500 nM.
Description: (§3) For inhibition tests, 1 μM Fabs were 2-fold serially diluted into protease specific assay buffer and incubated with 1-10 nM proteases for 30 min at room temperature. […] Inhibition percentages at given concentrations were calculated by comparing the initial reaction rates in the presence or absence of inhibitor. IC50 was determined as the concentration that achieved 50% inhibition, and KI values were calculated using KI=IC50/(S/Km+1). Vmax and Km at various Fab concentrations were measured to determine the inhibition type. FRET inhibition assays were also used for selectivity tests of isolated Fabs with the relevant proteases.
In another data set the target is T2, BACE2 (Homo sapiens, UniProt Q9Y5Z0).
T2 sequence (Q9Y5Z0 63-518): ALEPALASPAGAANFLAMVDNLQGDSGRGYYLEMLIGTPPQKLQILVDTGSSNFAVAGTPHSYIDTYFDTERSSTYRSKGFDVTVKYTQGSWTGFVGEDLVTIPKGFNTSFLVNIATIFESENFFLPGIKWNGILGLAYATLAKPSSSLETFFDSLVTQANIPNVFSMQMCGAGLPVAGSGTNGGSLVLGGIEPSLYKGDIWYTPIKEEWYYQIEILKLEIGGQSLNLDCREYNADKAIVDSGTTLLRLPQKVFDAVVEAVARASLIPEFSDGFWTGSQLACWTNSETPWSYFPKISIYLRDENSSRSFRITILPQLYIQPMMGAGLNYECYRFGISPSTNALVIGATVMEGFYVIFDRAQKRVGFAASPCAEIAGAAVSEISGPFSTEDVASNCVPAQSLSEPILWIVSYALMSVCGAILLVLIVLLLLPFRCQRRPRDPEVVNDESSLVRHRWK
As to the kind of experiment: FRET inhibition selectivity test, BACE2. Format: biochemical. The note with it: IgG.

The target in data set [3] is T3, BACE1 (Homo sapiens, UniProt P56817).
T3 construct: human β-secretase 1 (BACE1, residue 46-457); made in house; host or cells: HEK293F (secreted, protein A purified)
As to the kind of experiment: FRET peptide inhibition assay, BACE1 (M-2420). The note with it: IgG format; BACE-1, FRET peptide. Type of data set: biochemical.
Description: as §3

In data set [4] the target is T3, BACE1. As to the kind of experiment: Amyloid precursor protein (MBP-APP571-696) degradation by BACE1. Type of data set: biochemical. The conditions noted are these: 1 μM IgG, 1 μM BACE1, 5 μM MBP-APP, 37° C., 24 h; 86% without IgG.
Description: For amyloid precursor protein (APP) degradation studies, APP571-696 was cloned to the C-terminal of maltose binding protein (MBP) for E. coli expression and purified using amylose resin (NEB). 5 μM purified MBP-APP was incubated with 1 μM BACE1-Fc in the absence or presence of 1 μM IgG in BACE1 assay buffer at 37° C. for 24 h. In addition, APP571-696 was cloned to a pcDNA plasmid carrying a SPE leader for secretion expression. Transfected HEK293F cells were cultured in Expi293 media for 72 hrs with the presence of 14-800 nM purified IgG. The supernatants were clarified by centrifugation and 0.45 μm filtration, and produced Aβ1-40 was quantified by ELISA (Abcam).
The target in data set [5] is T4, cdMMP-12 mutant D4 (Homo sapiens, UniProt P39900, A167E/A173P/A252Q/H206S/I245T/K233R/M156E/N119Q/N126H/R135E/T215V/V161I/Y113D/Y132K).
T4 construct: hexahistidine (C); made in house; host or cells: E. coli BL21, pET32b (cytoplasmic, soluble fraction)
Description: Proteolytic stability of Fabs with cdMMP-12 D4. Type of data set: physicochemical. The note with it: 2 μM Fab, 2 μM cdMMP-12 D4, 4 h, 37° C. The procedure: (§1) Proteolytic stability tests 2 μM purified Fabs were incubated with 2 μM cdMMP-12 wt/D4 in 50 mM HEPES, 150 mM NaCl pH 7.5 at 37° C. for 4 h. Samples were analyzed by using 12% non-reducing SDS-PAGE and stained with Coomassie blue. Densitometric interpretation was conducted using a ChemiDoc imager (Bio-Rad).

In data set [6] the target is T5, cdMMP-12 wt (Homo sapiens, UniProt P39900).
T5 construct: hexahistidine (C); made in house; host or cells: E. coli BL21 (pET32b, cytoplasmic)
Description: FRET peptide inhibition assay, cdMMP-12 wt. Type of data set: biochemical. The conditions noted are these: toward cdMMP-12 wild type; listed as LG4. The procedure: (§2) FRET peptide inhibition assays In 96-well assay plates (Corning), 60/250/350/10/10/30 nM of (cd)MMP-1/-7/-9/-12 D4/-12 wt/-14 were preincubated with 1 nM-1 μM purified Fabs for 30 min at room temperature then 1 μM substrate M-2350 (Bachem) was added. Generated fluorescent signals (λEx=328 nm, λEm=393 nm) were monitored at 37° C. to measure the initial velocities. To calculate inhibition constants (KIs), data were fit with the equations for slow tight-binding inhibitors. The inhibition type of the Fabs was determined using the initial velocities of cdMMP-12 D4 as a function of substrate concentration (250-2000 nM) at various Fab concentrations (31-500 nM). The values of Vmax and Km were derived from linearization in accordance with the Lineweaver-Burk equation.

In data set [7] the target is cdMMP-9. Description: Bio-layer interferometry on cdMMP-9. Format: binding. The conditions noted are these: listed as LG4; read-out: KD toward cdMMP-9. For orientation: In BLI a coated tip is dipped into the sample, and binding shifts an interference pattern.
Target sequence in this assay (P14780 with tags, fused parts or gaps DEL216-390 limits assumed): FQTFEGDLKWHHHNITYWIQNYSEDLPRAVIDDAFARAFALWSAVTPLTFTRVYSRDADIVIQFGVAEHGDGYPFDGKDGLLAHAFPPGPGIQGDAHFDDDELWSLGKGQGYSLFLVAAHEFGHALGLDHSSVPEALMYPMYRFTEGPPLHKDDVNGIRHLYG
The target in data set [8] is T1, cdMMP-14. As to the kind of experiment: Bio-layer interferometry on cdMMP-14. Format: binding. Also on record: human MMP-14 (residue 114-320); hexahistidine (C); made in house; host or cells: E. coli periplasm. The note with it: listed as LG4; read-out: KD toward cdMMP-14.
Data set [9] addresses T5, cdMMP-12 wt. Description: Inhibition of proteolysis of modified TEM-1 ([…]) by cdMMP-12 wt. Format: biochemical. The note with it: 10 μM Fab, 700 nM cdMMP-12 wt, 250 nM modified TEM-1, 4 h. The method, then:
Inhibition tests with macromolecular substrates 10 μg/mL FITC-conjugated elastin (AnaSpec) was incubated with 7 nM cdMMP-12 D4/wt and 2-2000 nM purified Fab in 50 mM Tris-HCl, 150 mM NaCl, 5 mM CaCl2), 100 μM ZnCl2 pH 7.5. Generated fluorescent signals were measured at 12 h with λEx of 490 nm and λEm of 520 nm. For inhibition assays on fibronectin, 200 nM fibronectin (Corning) was incubated with 200-350 nM cdMMP-12 wt and 2 μM GM6001 or 0.1-6 μM Fabs in 50 mM HEPES, 150 mM NaCl pH 7.5 at 37° C. for 2-4 h. The samples were separated on 5% non-reducing SDS-PAGE and analyzed by western blotting with anti-Fibronectin antibody (Abcam) and chemiluminescent substrate (Thermo Scientific). For inhibition assays on modified TEM-1 carrying cleavable sequence ([…] (SEQ ID NO:134)) and a N-terminal HA tag, 250 nM modified TEM-1 was incubated with 700 nM cdMMP-12 wt and 10 μM Fabs in 50 mM HEPES, 150 mM NaCl pH 7.5 at 37° C. for 4 h. The samples were separated on 12% non-reducing SDS-PAGE, and the modified TEM-1 was visualized by western blotting using anti-HA antibody (Invitrogen) and chemiluminescent substrate. Assays without cdMMP-12s or Fabs were performed as controls.

The target of data set [10] is T5, cdMMP-12 wt. As to the kind of experiment: Proteolytic stability of Fabs with cdMMP-12 wt. Type of data set: physicochemical. The note with it: 2 μM Fab, 2 μM cdMMP-12 wt, 4 h, 37° C. The method, then:
as §1

Data set [11] addresses T5, cdMMP-12 wt. As to the kind of experiment: Fibronectin proteolysis inhibition, cdMMP-12 wt (western blot). Type of data set: biochemical. The procedure: Inhibition tests with macromolecular substrates 10 μg/mL FITC-conjugated elastin (AnaSpec) was incubated with 7 nM cdMMP-12 D4/wt and 2-2000 nM purified Fab in 50 mM Tris-HCl, 150 mM NaCl, 5 mM CaCl2), 100 μM ZnCl2 pH 7.5. Generated fluorescent signals were measured at 12 h with λEx of 490 nm and λEm of 520 nm. […] The samples were separated on 5% non-reducing SDS-PAGE and analyzed by western blotting with anti-Fibronectin antibody (Abcam) and chemiluminescent substrate (Thermo Scientific). […] Assays without cdMMP-12s or Fabs were performed as controls.
For orientation: A western blot detects proteins with antibodies after separation by electrophoresis.

The target of data set [12] is T4, cdMMP-12 mutant D4. Description: FRET peptide inhibition assay, cdMMP-12 D4. Type of data set: biochemical. The conditions noted are these: cdMMP-12 D4, FRET peptide, 31-500 nM Fab. The method, then: as §2

T5 sequence (P39900 106-263): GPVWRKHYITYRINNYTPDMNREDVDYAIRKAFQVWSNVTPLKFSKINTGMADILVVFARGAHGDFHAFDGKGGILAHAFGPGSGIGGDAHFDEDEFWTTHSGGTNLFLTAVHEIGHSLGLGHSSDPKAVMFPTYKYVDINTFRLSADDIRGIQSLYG
T3 sequence (P56817 46-457): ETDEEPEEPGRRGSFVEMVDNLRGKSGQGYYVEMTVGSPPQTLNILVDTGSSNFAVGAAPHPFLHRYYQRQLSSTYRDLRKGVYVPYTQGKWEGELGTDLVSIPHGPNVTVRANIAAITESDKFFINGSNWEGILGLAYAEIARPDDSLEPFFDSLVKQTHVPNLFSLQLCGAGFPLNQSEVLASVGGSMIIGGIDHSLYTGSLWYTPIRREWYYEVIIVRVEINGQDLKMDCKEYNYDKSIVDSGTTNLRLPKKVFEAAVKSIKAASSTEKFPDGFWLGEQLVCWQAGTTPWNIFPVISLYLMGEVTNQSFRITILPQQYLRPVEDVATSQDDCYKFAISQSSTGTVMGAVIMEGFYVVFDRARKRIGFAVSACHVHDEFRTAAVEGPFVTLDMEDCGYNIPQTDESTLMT
T4 sequence (P39900 106-263 Y113D/N119Q/N126H/Y132K/R135E/M156E/V161I/A167E/A173P/H206S/T215V/K233R/I245T/A252Q): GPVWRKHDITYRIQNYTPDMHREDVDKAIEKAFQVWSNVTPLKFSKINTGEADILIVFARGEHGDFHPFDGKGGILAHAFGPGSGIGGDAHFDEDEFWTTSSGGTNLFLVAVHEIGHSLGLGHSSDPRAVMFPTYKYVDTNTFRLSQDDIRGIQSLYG
Description for BACE2: as §3

B1: Fab 2B4: anti-MMP-14 antibody clone; VL SEQ ID NO:88, VH SEQ ID NO:1, CDR-H3 SEQ ID NO:4 (antibody, V domains shown)
VH: EVQLVESGGGLVQPGGSLRLSCAASGFNLYSSYIHWVRQAPGKGLEWVASIYSSYSSTYYADSVKGRFTISADTSKNTAYLQMNSLRAEDTAVYYCARSDSAVYSVRRMGSSGLAAYAMDYWGQGTLVTVSSAS
VL: DIQMTQSPSSLSASVGDRVTITCRASQSVSSAVAWYQQKPGKAPKLLIYSASSLYSGVPSRFSGSRSGTDFTLTISSLQPEDFATYYCQQYSYGYSSLITFGQGTKVEIKR
As for B1, the “Fab remained intact after exposure to protease” value with cdMMP-14 [1] amounted to 76%. Further, the “Inhibition of cdMMP-9 (selectivity)” value in the data set on cdMMP-9 [2] is listed as “did not inhibit”.

B2: IgG B1A4: anti-BACE1 inhibitory Fab B1A4 converted into IgG format (antibody, V domains shown)
VH: EVQLVESGGGLVQPGGSLRLSCAASGFNISYSSIHWVRQAPGKGLEWVAYISPSSSYTSYADSVKGRFTISADTSKNTAYLQMNSLRAEDTAVYYCARHYYVSVGSGIDYWGQGTLVTVSSAS
VL: DIQMTQSPSSLSASVGDRVTITCRASQSVSSAVAWYQQKPGKAPKLLIYSASSLYSGVPSRFSGSRSGTDFTPTISSLQPEDFATYYCQQASASPYALITFGQGTKVEIKR
B2: in the data set with BACE2, the “Inhibition of BACE2 (selectivity)” value is listed as “but not BACE2”. Also, the “Inhibition Potency KI (associated IgG, in parentheses)” value with BACE1 [3] was 0.035 µM. Further, the “Cleavage of APP571-696 by BACE1 in presence of IgG” value with BACE1 [4] is given as 37%.

B3: Fab LG4: anti-MMP-12 antibody clone; VL SEQ ID NO:112, VH SEQ ID NO:114, CDR-H3 SEQ ID NO:117 (antibody, V domains shown)
VH: EVQLVESGGGLVQPGGSLRLSCAASGFNLYYSYMHWVRQAPGKGLEWVASISSYYGYTSYADSVKGRFTISADTSKNTAYLQMNSLRAEDTAVYYCARSPIVYYELFMFIDMGAQGWKYGMDYWGQGTLVTVSSAS
VL: DIQMTQSPSSLSASVGDRVTITCRASQSVSSAVAWYQQKPGKAPKLLIYSASSLYSGVPSRFSGSRSGTDFTLTISSLQPEDFATYYCQQTFYPFTFGQGTKVEIKR
With B3, in the data set with cdMMP-12 mutant D4 [5], the “Degradation of Fab by cdMMP-12 D4” value was “no significant degradation”. Besides, in the data set with cdMMP-12 wt [6], the “Inhibition FRET peptide” value is “non-”. For the same molecule, the Kd (usually the free concentration of one partner at which half of the binding sites on the other are occupied at equilibrium, for simple one-to-one binding) at cdMMP-9 [7] is 0.72 µM; with cdMMP-14 [8], roughly 0.7 µM. The “Inhibition of modified TEM-1 (PLGLEEAK) proteolysis” value with cdMMP-12 wt [9] is recorded as “significant inhibition”. In addition, the “Fab remained intact after exposure to cdMMP-12 wt” value with cdMMP-12 wt [10] is 54%. Besides, the “Fibronectin remaining after cdMMP-12 wt hydrolysis” value in the data set with cdMMP-12 wt [11] (6 μM Fab, 350 nM wt cdMMP-12, 200 nM fibronectin, 37° C.) was “significant amounts of fibronectin remained”. In addition, the “Inhibition Fibronectin IC50” value in the data set with cdMMP-12 wt [11] (toward cdMMP-12 wild type, 200 nM enzyme, 200 nM fibronectin) was “Inhib”. For the same molecule, in the data set with cdMMP-12 mutant D4 [12], the “Type of inhibition (Lineweaver-Burk)” value was “substrate competitive manner”.
